Laboratory results: patent US20260098059A1 (ENDOMET BIOSCIENCES, published 2026)
Several values for one entry are separate records, joined by “and”; a condition that tells them apart may be missing. Identical values can stand only once. Bridges are numbered along the chain shown (N, C = ends). Where no end group is shown, it is not given here. [ ]: non-standard residue; d: D form. The star is where a group is joined. NMeW = CN[C@@H](Cc1c[nH]c2ccccc12)C(=O)O; Stearoyl = CCCCCCCCCCCCCCCCCC(=O)*; Chg = N[C@H](C(=O)O)C1CCCCC1; αMeV = CC(C)[C@](C)(N)C(=O)O; αMeS = C[C@](N)(CO)C(=O)O; NMeA = CN[C@@H](C)C(=O)O

T1: β-catenin (UniProt P35222 134-665, limits assumed, biotinylated in the SPR and plate assays)
T1 construct: also called beta catenin; biotinylated β-catenin
T1 sequence (looked up): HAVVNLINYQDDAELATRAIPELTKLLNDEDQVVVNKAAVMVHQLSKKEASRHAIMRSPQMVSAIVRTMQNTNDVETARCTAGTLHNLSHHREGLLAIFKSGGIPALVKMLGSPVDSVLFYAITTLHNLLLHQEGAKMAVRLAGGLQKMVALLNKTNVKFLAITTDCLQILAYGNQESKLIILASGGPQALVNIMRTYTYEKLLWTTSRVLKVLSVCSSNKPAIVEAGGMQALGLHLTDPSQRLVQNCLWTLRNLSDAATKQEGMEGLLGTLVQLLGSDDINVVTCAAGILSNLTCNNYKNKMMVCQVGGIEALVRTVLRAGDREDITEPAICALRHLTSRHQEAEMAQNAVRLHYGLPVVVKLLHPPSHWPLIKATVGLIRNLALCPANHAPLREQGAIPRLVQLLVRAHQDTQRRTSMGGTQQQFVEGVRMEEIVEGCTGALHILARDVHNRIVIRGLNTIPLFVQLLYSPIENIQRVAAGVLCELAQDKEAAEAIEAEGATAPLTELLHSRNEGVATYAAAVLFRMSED


Columns and labels:
β-catenin [1] = biological target: T1, β-catenin; experiment: competitive FP
Text: Fluorescence polarization (FP) is another method used to analyze protein-ligand interactions. This methodology measures the change in fluorescence light emitted by a labelled compound free vs. conjugated to another compound in solution. Upon binding of the fluorescent molecule to a complex, polarization increases because of limited rotation of the fluorescent tracer. Competitive FP is often utilized in drug screens as it is formatted for high throughput screens in a plate format. This immunoassay is performed by introducing a non-conjugated drug to compete for binding to the labelled competitor-ligand complex, leading to a reduction in polarization. […] Exemplary methodology is described in Example 13. Data were analyzed and plotted in Microsoft Excel (Microsoft, Redmond, WA).
Varying concentrations of β-catenin inhibitor candidate (SEQ ID NO: 404) were then added in a series of serial dilutions from 10 nM to 30 uM of inhibitor in different wells of the plate. The fluorescence polarization was read by Infinite M1000 (Tecan, Baldwin Park CA) at excitation wavelength of 470 nm and measured at emission wavelength of 520 nm. […] The experiments were performed three times and data were analyzed and plotted in Microsoft Excel (Microsoft, Redmond, WA).

β-catenin [2] = biological target: T1, β-catenin; experiment: cell-based or functional assay

| Binder | Kd (β-catenin [1]) | Wnt Reporter EC50 (β-catenin [2]) |
| --- | --- | --- |
| MMVQSLFVPPVK (not fully specified; cyclo-glutaryl-*MM-NMeNva-QSLF-NMeNva-PP-NMeNva-K*-CONH2) [SEQ ID NO: 3] | > 10000 nM and ≤ 30000 nM | – |
| WAQEILDKHGQRVWG (HELM PEPTIDE1{[ac].W.[meA].Q.E.I.L.D.K.H.[O=C([C@@H](N[*:1])C1CCCCC1)[*:2]].Q.R.V.W.G.[am]}$PEPTIDE1,PEPTIDE1,5:R3-9:R3$$$V2.0; SMILES CC[C@H](C)[C@@H]1NC(=O)[C@@H](NC(=O)[C@H](CCC(N)=O)NC(=O)[C@H](C)N(C)C(=O)[C@H](Cc2c[nH]c3ccccc23)NC(C)=O)CCC(=O)NCCCC[C@@H](C(=O)N[C@@H](Cc2c[nH]cn2)C(=O)N[C@H](C(=O)N[C@@H](CCC(N)=O)C(=O)N[C@@H](CCCNC(=N)N)C(=O)N[C@H](C(=O)N[C@@H](Cc2c[nH]c3ccccc23)C(=O)NCC(N)=O)C(C)C)C2CCCCC2)NC(=O)[C@H](CC(=O)O)NC(=O)[C@H](CC(C)C)NC1=O) [SEQ ID NO: 426] | ≤ 400 nM | – |
| W[NMeA]QEILDKH[Chg]QRVWG-NH2 (lactam 4-8; not fully specified (N-terminus); printed as H17C8C(O)NH-W-NMeA-QE*ILDK*H-Chg-QRVWG-NH2) [SEQ ID NO: 427] | ≤ 400 nM | – |
| WWESILDEHVQRVWG (HELM PEPTIDE1{W.[meW].E.S.I.L.D.E.H.V.Q.R.V.W.G.[am]}$$$$V2.0; SMILES CC[C@H](C)[C@H](NC(=O)[C@H](CO)NC(=O)[C@H](CCC(=O)O)NC(=O)[C@H](Cc1c[nH]c2ccccc12)N(C)C(=O)[C@@H](N)Cc1c[nH]c2ccccc12)C(=O)N[C@@H](CC(C)C)C(=O)N[C@@H](CC(=O)O)C(=O)N[C@@H](CCC(=O)O)C(=O)N[C@@H](Cc1c[nH]cn1)C(=O)N[C@H](C(=O)N[C@@H](CCC(N)=O)C(=O)N[C@@H](CCCNC(=N)N)C(=O)N[C@H](C(=O)N[C@@H](Cc1c[nH]c2ccccc12)C(=O)NCC(N)=O)C(C)C)C(C)C) [SEQ ID NO: 36] | ≤ 400 nM | > 30000 nM |
| H-MWESILDEH[αMeV]QRVWG-NH2 [SEQ ID NO: 34] | ≤ 400 nM | > 30000 nM |
| H-MWE[αMeS]ILDEHVQRVWG-NH2 [SEQ ID NO: 35] | ≤ 400 nM | > 30000 nM |
| WFLISFW (HELM PEPTIDE1{[meW].F.L.I.S.F.W.[am]}$$$$V2.0; SMILES CC[C@H](C)[C@H](NC(=O)[C@H](CC(C)C)NC(=O)[C@H](Cc1ccccc1)NC(=O)[C@H](Cc1c[nH]c2ccccc12)NC)C(=O)N[C@@H](CO)C(=O)N[C@@H](Cc1ccccc1)C(=O)N[C@@H](Cc1c[nH]c2ccccc12)C(N)=O) [SEQ ID NO: 102] | ≤ 400 nM | > 15000 nM and ≤ 22500 nM |
| H-MWFLISSW-OH [SEQ ID NO: 96] | > 10000 nM and ≤ 30000 nM | > 7500 nM and ≤ 15000 nM |
| MWFLICFW (HELM PEPTIDE1{[ac].M.W.F.L.I.C.F.W.[O=C(O)CCCN[*:1]]}$$$$V2.0; SMILES CC[C@H](C)[C@H](NC(=O)[C@H](CC(C)C)NC(=O)[C@H](Cc1ccccc1)NC(=O)[C@H](Cc1c[nH]c2ccccc12)NC(=O)[C@H](CCSC)NC(C)=O)C(=O)N[C@@H](CS)C(=O)N[C@@H](Cc1ccccc1)C(=O)N[C@@H](Cc1c[nH]c2ccccc12)C(=O)NCCCC(=O)O) [SEQ ID NO: 197] | > 400 nM and ≤ 1000 nM | ≤ 7500 nM |
| Stearoyl-GW[NMeW]ESILDEHVQRVWG-OH [SEQ ID NO: 2] | ≤ 400 nM | – |

Continued, values first:

| Kd (β-catenin [1]) | Wnt Reporter EC50 (β-catenin [2]) | Binder |
| --- | --- | --- |
| > 400 nM and ≤ 1000 nM | – | Ac-W[NMeA]QKILDEH[Chg]EDVWK-NH2 (lactam 11-15, 4-8 (inferred)) [SEQ ID NO: 464] |
| > 400 nM and ≤ 1000 nM | – | Ac-W[NMeA]QKILNDH[Chg]QAVW-NH2 (lactam 4-8) [SEQ ID NO: 458] |
| > 400 nM and ≤ 1000 nM | – | RRWPQKILDEHVRRVWR (HELM PEPTIDE1{[ac].R.R.W.P.Q.K.I.L.D.E.H.V.R.R.V.W.R.[am]}$PEPTIDE1,PEPTIDE1,7:R3-11:R3$$$V2.0; SMILES CC[C@H](C)[C@@H]1NC(=O)[C@@H](NC(=O)[C@H](CCC(N)=O)NC(=O)[C@@H]2CCCN2C(=O)[C@H](Cc2c[nH]c3ccccc23)NC(=O)[C@H](CCCNC(=N)N)NC(=O)[C@H](CCCNC(=N)N)NC(C)=O)CCCCNC(=O)CC[C@@H](C(=O)N[C@@H](Cc2c[nH]cn2)C(=O)N[C@H](C(=O)N[C@@H](CCCNC(=N)N)C(=O)N[C@@H](CCCNC(=N)N)C(=O)N[C@H](C(=O)N[C@@H](Cc2c[nH]c3ccccc23)C(=O)N[C@@H](CCCNC(=N)N)C(N)=O)C(C)C)C(C)C)NC(=O)[C@H](CC(=O)O)NC(=O)[C@H](CC(C)C)NC1=O) [SEQ ID NO: 429] |
| ≤ 400 nM | – | WAQKILDEHGQRVW (HELM PEPTIDE1{[ac].W.[meA].Q.K.I.L.D.E.H.[O=C([C@@H](N[*:1])C1CCCCC1)[*:2]].Q.R.V.W.[am]}$PEPTIDE1,PEPTIDE1,5:R3-9:R3$$$V2.0; SMILES CC[C@H](C)[C@@H]1NC(=O)[C@@H](NC(=O)[C@H](CCC(N)=O)NC(=O)[C@H](C)N(C)C(=O)[C@H](Cc2c[nH]c3ccccc23)NC(C)=O)CCCCNC(=O)CC[C@@H](C(=O)N[C@@H](Cc2c[nH]cn2)C(=O)N[C@H](C(=O)N[C@@H](CCC(N)=O)C(=O)N[C@@H](CCCNC(=N)N)C(=O)N[C@H](C(=O)N[C@@H](Cc2c[nH]c3ccccc23)C(N)=O)C(C)C)C2CCCCC2)NC(=O)[C@H](CC(=O)O)NC(=O)[C@H](CC(C)C)NC1=O) [SEQ ID NO: 446] |
| > 400 nM and ≤ 1000 nM | – | WAESILKEHVQRVWG (HELM PEPTIDE1{[ac].W.[meA].E.S.I.L.K.E.H.V.Q.R.V.W.G.[am]}$PEPTIDE1,PEPTIDE1,4:R3-8:R3$$$V2.0; SMILES CC[C@H](C)[C@@H]1NC(=O)[C@H](CO)NC(=O)[C@@H](NC(=O)[C@H](C)N(C)C(=O)[C@H](Cc2c[nH]c3ccccc23)NC(C)=O)CCC(=O)NCCCC[C@@H](C(=O)N[C@@H](CCC(=O)O)C(=O)N[C@@H](Cc2c[nH]cn2)C(=O)N[C@H](C(=O)N[C@@H](CCC(N)=O)C(=O)N[C@@H](CCCNC(=N)N)C(=O)N[C@H](C(=O)N[C@@H](Cc2c[nH]c3ccccc23)C(=O)NCC(N)=O)C(C)C)C(C)C)NC(=O)[C@H](CC(C)C)NC1=O) [SEQ ID NO: 450] |
| ≤ 400 nM | – | WXQKILNDHGQRVW (HELM PEPTIDE1{[ac].W.[Aib].Q.K.I.L.N.D.H.[O=C([C@@H](N[*:1])C1CCCCC1)[*:2]].Q.R.V.W.[am]}$PEPTIDE1,PEPTIDE1,5:R3-9:R3$$$V2.0; SMILES CC[C@H](C)[C@@H]1NC(=O)[C@@H](NC(=O)[C@H](CCC(N)=O)NC(=O)C(C)(C)NC(=O)[C@H](Cc2c[nH]c3ccccc23)NC(C)=O)CCCCNC(=O)C[C@@H](C(=O)N[C@@H](Cc2c[nH]cn2)C(=O)N[C@H](C(=O)N[C@@H](CCC(N)=O)C(=O)N[C@@H](CCCNC(=N)N)C(=O)N[C@H](C(=O)N[C@@H](Cc2c[nH]c3ccccc23)C(N)=O)C(C)C)C2CCCCC2)NC(=O)[C@H](CC(N)=O)NC(=O)[C@H](CC(C)C)NC1=O) [SEQ ID NO: 455] |
| > 400 nM and ≤ 1000 nM | – | AQKILNEHGQRVWG (HELM PEPTIDE1{[ac].[meA].Q.K.I.L.N.E.H.[O=C([C@@H](N[*:1])C1CCCCC1)[*:2]].Q.R.V.W.G.[am]}$PEPTIDE1,PEPTIDE1,4:R3-8:R3$$$V2.0; SMILES CC[C@H](C)[C@@H]1NC(=O)[C@@H](NC(=O)[C@H](CCC(N)=O)NC(=O)[C@H](C)N(C)C(C)=O)CCCCNC(=O)CC[C@@H](C(=O)N[C@@H](Cc2c[nH]cn2)C(=O)N[C@H](C(=O)N[C@@H](CCC(N)=O)C(=O)N[C@@H](CCCNC(=N)N)C(=O)N[C@H](C(=O)N[C@@H](Cc2c[nH]c3ccccc23)C(=O)NCC(N)=O)C(C)C)C2CCCCC2)NC(=O)[C@H](CC(N)=O)NC(=O)[C@H](CC(C)C)NC1=O) [SEQ ID NO: 433] |
| ≤ 400 nM | – | [NMeA]QKILNEH[Chg]QRVWG-NH2 (lactam 3-7; not fully specified (N-terminus); printed as H23C11C(O)NH-NMeA-QK*ILNE*H-Chg-QRVWG-NH2) [SEQ ID NO: 434] |
